Measurements: publication PMC10097602, “Ubiquitin-like conjugation by bacterial cGAS enhances anti-phage defence” (Nature, 2023)

T1: Vs.4 (Tequatrovirus T4, UniProt P13314)
T1 construct: gene acb2; residues 1-88, full length; SUMO fusion with His6, tag cleaved by ULP1; E. coli BL21(DE3)pLysS
T1 sequence (P13314 1-88): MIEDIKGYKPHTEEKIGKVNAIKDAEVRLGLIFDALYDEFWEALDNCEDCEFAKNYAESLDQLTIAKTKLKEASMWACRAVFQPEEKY

B1: Vs.4 from phage T4 (residues 1-88) (natural protein, UniProt P13314 1-88, looked up)
chain: MIEDIKGYKPHTEEKIGKVNAIKDAEVRLGLIFDALYDEFWEALDNCEDCEFAKNYAESLDQLTIAKTKLKEASMWACRAVFQPEEKY
notes: Vs.4, protein of unknown function of bacteriophage T4, residues 1-88; T4 proteome UniProt UP000009087; Hexamer by crystal structure and analytical ultracentrifugation; also called Vs.4 (WT); wild-type Vs.4; source: E. coli BL21(DE3)pLysS, purified (Ni-NTA, SUMO tag cleaved with ULP1, size-exclusion chromatography)
B2: Vs.4 F33A (natural protein, phage T4, UniProt P13314 1-88, looked up)
chain: MIEDIKGYKPHTEEKIGKVNAIKDAEVRLGLIADALYDEFWEALDNCEDCEFAKNYAESLDQLTIAKTKLKEASMWACRAVFQPEEKY
notes: Vs.4 of bacteriophage T4, residues 1-88, with F33A; source: E. coli BL21(DE3)pLysS, purified (Ni-NTA, SUMO tag cleaved with ULP1, size-exclusion chromatography)

Columns and labels:
Vs.4 = target: T1, Vs.4; test: isothermal titration calorimetry (VP-ITC), global fit of three titrations; assay type: binding
cGAMP = test: ITC; settings: for Kd: parent: 31.4 nM; for other: ΔH: parent: -24.9 kcal/mol; for other: ΔS: parent: -50.6
[1] = target: the molecule itself; test: crystal structure; Vs.4 with 3'3'-cGAMP (1.2:1 molar ratio), hanging drops, 7% PEG8000, 0.1 M imidazole pH 6.3, 0.2 mM calcium acetate, room temperature; quaternary structure confirmed with PISA
[2] = target: the molecule itself; test: AUC; sedimentation velocity, 15 µM of each protein in 20 mM Tris and 150 mM NaCl; hexamer
[3] = high incompetent fraction (0.496)

| Molecule | Kd (cGAMP) [nM] | other: ΔH (cGAMP) [kcal/mol] | other: ΔS (cGAMP) [cal/mol·K] | other results |
| --- | --- | --- | --- | --- |
| Nc1nc2c(ncn2[C@@H]2O[C@@H]3COP(=O)(O)O[C@H]4[C@@H](O)[C@H](n5cnc6c(N)ncnc65)O[C@@H]4COP(=O)(O)O[C@H]3[C@H]2O)c(=O)[nH]1 [3′3′-cGAMP] | – | – | – | Kd (Vs.4): 31.4 nM |
| Vs.4 from phage T4 (residues 1-88) (from UniProt P13314) A77Y | 1100 | -5 | 10.3 | – |
| Vs.4 from phage T4 (residues 1-88) (from UniProt P13314) F33A | – | – | – | Kd (cGAMP; [3]): 25.3 nM; other: ΔH (cGAMP; [3]): -24.3 kcal/mol; other: ΔS (cGAMP; [3]): -48.8 cal/mol·K |
| Vs.4 from phage T4 (residues 1-88) (from UniProt P13314) F82A | 859 | -23.3 | -51.6 | – |
| Vs.4 from phage T4 (residues 1-88) (from UniProt P13314) Y8A | 158 | -10.6 | -5 | – |
| B1 | – | – | – | stoichiometry N [1]: 6 |
| B2 | – | – | – | binding result [2]: binds |
